Data: publication doi:10.1101/2025.03.28.645892 (2025)

Experiments:
[1] = target: T1, Arabidopsis thaliana UFD1B (Arabidopsis thaliana, UniProt Q9SJV0 1-340); assay: MST; pH 6.5; AMPPNP
T1 chain: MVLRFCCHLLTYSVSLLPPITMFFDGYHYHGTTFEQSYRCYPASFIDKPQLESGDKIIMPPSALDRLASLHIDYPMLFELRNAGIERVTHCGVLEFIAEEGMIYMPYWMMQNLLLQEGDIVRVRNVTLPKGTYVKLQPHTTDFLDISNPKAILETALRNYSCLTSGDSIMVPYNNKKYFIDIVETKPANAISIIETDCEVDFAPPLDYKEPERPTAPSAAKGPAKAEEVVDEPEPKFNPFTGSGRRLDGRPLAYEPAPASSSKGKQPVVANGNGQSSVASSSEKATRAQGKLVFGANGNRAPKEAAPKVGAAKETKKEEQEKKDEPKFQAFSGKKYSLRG

[2] = target: T1, Arabidopsis thaliana UFD1B; assay: MST; pH 7.5; AMPPNP
[3] = target: T1, Arabidopsis thaliana UFD1B; assay: ITC; AMPPNP; AtCDC48A saturated with AtNPL4
[4] = target: T1, Arabidopsis thaliana UFD1B; assay: MST; pH 6.5
[5] = target: T1, Arabidopsis thaliana UFD1B; assay: MST; pH 7.5
AtNPL4B F105A = target: T2, AtNPL4B F105A (Arabidopsis thaliana, UniProt Q9LYC2 1-413, F105A); assay: ITC; AMPPNP
T2 sequence: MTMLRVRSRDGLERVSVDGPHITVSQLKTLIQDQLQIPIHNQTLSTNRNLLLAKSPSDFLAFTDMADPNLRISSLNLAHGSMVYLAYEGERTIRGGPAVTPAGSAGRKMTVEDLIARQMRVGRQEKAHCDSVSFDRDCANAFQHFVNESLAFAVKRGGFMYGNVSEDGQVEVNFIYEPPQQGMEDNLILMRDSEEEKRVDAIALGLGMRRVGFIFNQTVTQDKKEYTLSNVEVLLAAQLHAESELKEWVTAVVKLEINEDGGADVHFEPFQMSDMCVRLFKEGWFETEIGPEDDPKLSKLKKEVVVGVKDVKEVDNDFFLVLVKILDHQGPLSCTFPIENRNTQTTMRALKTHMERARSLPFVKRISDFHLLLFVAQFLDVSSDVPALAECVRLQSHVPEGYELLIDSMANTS

AtNPL4B UBXL domain = target: T3, AtNPL4B UBXL domain (Arabidopsis thaliana, UniProt Q9LYC2 1-89); assay: ITC; AMPPNP
T3 chain: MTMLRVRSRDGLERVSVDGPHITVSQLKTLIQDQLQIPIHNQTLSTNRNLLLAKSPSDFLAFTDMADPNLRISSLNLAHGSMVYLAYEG

B1: AtCDC48A saturated with AtNPL4 (complex)
chain 1: MSTPAESSDSKSKKDFSTAILERKKSPNRLVVDEAINDDNSVVSLHPATMEKLQLFRGDTILIKGKKRKDTVCIALADETCEEPKIRMNKVVRSNLRVRLGDVISVHQCPDVKYGKRVHILPVDDTVEGVTGNLFDAYLKPYFLEAYRPVRKGDLFLVRGGMRSVEFKVIETDPAEYCVVAPDTEIFCEGEPVKREDEERLDDVGYDDVGGVRKQMAQIRELVELPLRHPQLFKSIGVKPPKGILLYGPPGSGKTLIARAVANETGAFFFCINGPEIMSKLAGESESNLRKAFEEAEKNAPSIIFIDEIDSIAPKREKTNGEVERRIVSQLLTLMDGLKSRAHVIVMGATNRPNSIDPALRRFGRFDREIDIGVPDEIGRLEVLRIHTKNMKLAEDVDLERISKDTHGYVGADLAALCTEAALQCIREKMDVIDLEDDSIDAEILNSMAVTNEHFHTALGNSNPSALRETVVEVPNVSWNDIGGLENVKRELQETVQYPVEHPEKFEKFGMSPSKGVLFYGPPGCGKTLLAKAIANECQANFISVKGPELLTMWFGESEANVREIFDKARQSAPCVLFFDELDSIATQRGGGSGGDGGGAADRVLNQLLTEMDGMNAKKTVFIIGATNRPDIIDSALLRPGRLDQLIYIPLPDEDSRLNIFKAALRKSPIAKDVDIGALAKYTQGFSGADITEICQRACKYAIRENIEKDIEKEKRRSENPEAMEEDGVDEVSEIKAAHFEESMKYARRSVSDADIRKYQAFAQTLQQSRGFGSEFRFENSAGSGATTGVADPFATSAAAAGDDDDLYN
chain 2: MMMLRIRSRDGLERVTAEGAHITVSQLKTLIADQLQIPLHKQTLSTNRDLLLAKTPADLLAFTDLTDPNLPLSSLNLGHGSMLYLAYDGERSIPGAPPVTPAGSFGRKMTVDDLIARQMRVTRQETSHCDSVSFDRDAANAFQHYVNESLAFAVKRGGFMYGTVTEEGQVEVDFIYEPPQQGTEANLILMRDADEEKRVDAIAMGLGMRRVGFIFNQTVVQDKTEYTLSNAEVLQAAELHAESELKEWVTAVVKLEVNEDGGADVHFEAFQMSDMCIRLFKEEWFETEIMPDDDPKLSKMKKEVVVGVKDLKEVDNDFFLVLVRILDHQGPLSSTFPIENRSSRATMRALKTHLDRAKSLPLVKKMSDFHLLLFVAQFLDVSSDVPALAECVRLQSPVPEGYALLIESMANTC
modifications: Alexa-488 dye label in the MST experiments only
In the case of B1, the Kd [1] is reported as 2.9 µM, the Kd [2] is reported as 4.6 µM and the Kd [3] is reported as 3.8 µM.

B2: Arabidopsis thaliana NPL4 (natural protein)
chain: B1 chain 2
modifications: Alexa-488 dye label in the MST experiments only
B2 showed a Kd [4] of 75.4 µM and a Kd [5] of 256 µM.

B3: Arabidopsis thaliana CDC48A (enzyme)
chain: B1 chain 1
B3 showed a Kd (AtNPL4B F105A) of 4.6 µM and a Kd (AtNPL4B UBXL domain) of 3.2 µM.
